Measured values taken from article PMC7368010, “Global translation during early development depends on the essential transcription factor PRDM10”.

T1: GST-PRDM10 441-880 (central zinc finger array) (UniProt Q3UTQ7 441-880)
T1 sequence: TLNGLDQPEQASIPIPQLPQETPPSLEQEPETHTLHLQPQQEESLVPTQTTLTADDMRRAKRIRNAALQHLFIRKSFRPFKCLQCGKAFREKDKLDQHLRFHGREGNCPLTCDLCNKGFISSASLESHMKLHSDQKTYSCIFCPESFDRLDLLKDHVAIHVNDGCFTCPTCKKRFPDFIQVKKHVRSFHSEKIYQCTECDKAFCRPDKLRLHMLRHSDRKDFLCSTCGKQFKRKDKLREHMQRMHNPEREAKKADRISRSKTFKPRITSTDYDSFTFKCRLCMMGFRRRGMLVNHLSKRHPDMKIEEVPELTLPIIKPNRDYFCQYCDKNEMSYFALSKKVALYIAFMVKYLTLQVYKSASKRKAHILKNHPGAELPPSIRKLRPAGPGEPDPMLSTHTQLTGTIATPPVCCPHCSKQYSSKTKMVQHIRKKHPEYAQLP

B1: WT unlabeled competitor (dsDNA)
DNA 1: CTGGCACAGTGGTCGCGCCCGGCCCGCC
DNA 2: GGCGGGCCGGGCGCGACCACTGTGCCAG
B2: WT probe (dsDNA)
DNA 1: CTGGCACAGTGGTCGCGCCCGGCCCGCC
DNA 2: GGCGGGCCGGGCGCGACCACTGTGCCAG

Legend:
[1] = target: T1, GST-PRDM10 441-880 (central zinc finger …); experiment: competition; EMSA, 20- to 320-fold excess over 10 nM labeled WT probe; 0.4 uM ZnCl2; EMSA: 6 mM HEPES-KOH pH 7.9, 6% glycerol, 100 ug/mL BSA, 0.4 uM ZnCl2, 20 ug/mL poly(dI-dC), room temperature 20 min; 6% native PAGE in 0.25x TBE; details: protein: recombinant; tags: GST; blunt
[2] = target: T1, GST-PRDM10 441-880 (central zinc finger …); experiment: EMSA; 125-1000 nM protein, 10 nM probe; 0.4 uM ZnCl2; EMSA: 6 mM HEPES-KOH pH 7.9, 6% glycerol, 100 ug/mL BSA, 0.4 uM ZnCl2, 20 ug/mL poly(dI-dC), room temperature 20 min; 6% native PAGE in 0.25x TBE; details: protein: recombinant; tags: GST; label: 5'-biotin; blunt

| Binder | binding result [1] | binding result [2] |
| --- | --- | --- |
| B1 | binds | – |
| B2 | – | binds |
